Source: article PMC10281804, “The structural basis of the talin–KANK1 interaction that coordinates the actin and microtubule cytoskeletons at focal adhesions” (Open Biology, 2023)

Tests used:
[1] = system: GFP–talin1–cBAK; experiment: Mitochondrial targeting system (MTS): recruitment of mCherry–KANK1 by GFP–talin1–cBAK; format: cell-based; details: NIH3T3 fibroblasts and HEK293T cells; fluorescence microscopy colocalization
Description: To examine the effect of these KANK1 mutations on talin interactions in cells, we next used a mitochondrial targeting system (MTS) which we previously used to screen for defined protein–protein interactions. In this assay, one protein is fused to a small peptide sequence from the pro-apoptotic protein BAK (cBAK) which leads to its insertion into the outer membrane of mitochondria. Proteins that interact with the cBAK-tagged protein will get recruited to mitochondria, and this recruitment can be verified either by visualizing colocalization using fluorescence microscopy (figure 4a) or by purification of mitochondria followed by detection of co-precipitates using biochemistry (figure 4b,c). […] To confirm that the interaction was meditated by the R7 domain, we performed the colocalization assays with truncated talin constructs.
(§1) NIH3T3 mouse fibroblasts and HEK293T human epithelial cells were obtained from the American Type Culture Collection (ATCC). The vinculin null and WT mouse embryonic fibroblasts (MEFs) originate from the Eileen Adamson laboratory. All cells were maintained in Dulbecco's Modified Eagle Medium (DMEM; Sigma) supplemented with 10% fetal bovine serum (FBS, Gibco), 1% L-glutamine (Sigma) and 1% non-essential amino acids (Sigma). Talin1&2 null cells were cultured in DMEM F-12 (Gibco) supplemented with 10% FBS, 1% L-glutamine, 1% non-essential amino acids and […] HEPES (Sigma). All cells were cultured at 37̊C supplied with 5% CO2 and 95% humidity. Transient transfections were performed using Lipofectamine LTX with Plus Reagent (Invitrogen) to NIH3T3 cells, Lipofectamine 2000 (Invitrogen) to talin null cells, and jetPRIME reagent (Polyplus) to MEFs and HEK293T cells, as per the manufacturer's instructions.
(§2) For the construction of mCherry-KANK1, human FL-KANK1 (generous donation from the Bershadsky laboratory) cDNA was tagged in the C-terminal site with pmCherry (Clontech) by restriction digestion. Point mutations (L41E, L43E, F45E and V49E) were introduced in mCherry-KANK1 by site-directed mutagenesis (NEB) using the following oligonucleotides: […]ga[…] and […] for L41E; […]ga[…] and […] for L43E; […]gaa[…] and […] for F45E; […]a[…] and […] for V49E. Generation of GFP–talin1–cBAK and GFP–cBAK was as previously described. G1404L was introduced on GFP–talin1–cBAK by the method above using […]ctt[…] and […]. To generate GFP–talin1 R7DD–cBAK and GFP–talin1 R9DD-cBAK constructs, R7-DD (3555 bp) and R9-DD (2661 bp) were amplified from talin-1 (Mus musculus). Restriction digestion with XhoI and HindIII FastDigest enzymes (Thermo Scientific) was used to linearize GFP–cBAK. DNA assembly was performed to join R7-DD and R9-DD to linearized the GFP–cBAK vector using the NEBuilder HiFi DNA assembly kit (NEB).
(§3) Images of fixed samples in PBS were acquired at room temperature using an Olympus IX83 inverted microscope equipped with a 60×/1.42 PlanApo N oil objective and a QImaging Retiga R6 CCD camera, controlled by Metamorph software. Samples were illuminated using LEDs (UV/Cyan/Green-Yellow/Red, Lumencor) for fluorescence excitation; a Sedat filter set (DAPI/FITC/TRITC/Cy5, Chroma, 89000) was used.

[2] = system: talin1-cBAK; experiment: Mitochondria pulldown of KANK1 WT or point mutations, Western blot; format: cell-based; details: HEK293T cells; mitochondrial pulldown, triplicate experiments, normalized to WT; *** p < 0.001 (one-way ANOVA, Dunnett's)
Description: as §2
For fixed cell imaging, cells were cultured in glass-bottom dishes (IBL) coated with bovine fibronectin (Sigma) at a final concentration of 10 µg ml^−1. Samples were fixed in 4% paraformaldehyde (PFA, Sigma), and warmed to 37̊C, for 15 min before being washed three times with PBS. For immunofluorescence staining, samples were permeabilized at room temperature with 0.5% Triton X-100 (Sigma) for 5 min before being washed three times. […]
Protein samples were extracted from cells and mitochondria, respectively, using RIPA lysis buffer (Chromotek) supplemented with protease inhibitors. […] Primary antibody signal was detected using goat anti-mouse IgG conjugated to IRDye 680RD (ab216776, abcam) and goat anti-rabbit IgG conjugated to IRDye 800CW (ab216773, abcam) secondary antibodies, diluted 1 : 15 000, imaged with an Odyssey CLx imaging system (LI-CO Biosciences). […]

[3] = system: focal adhesions of NIH3T3 fibroblasts; experiment: KANK1 localization to focal adhesions (co-expression with GFP–paxillin); format: cell-based, mouse; details: NIH3T3 fibroblasts co-expressing GFP–paxillin
Description: as §1, §2, §3

| Molecule | recruitment of mCherry–KANK1 to mitochondria by GFP–talin1–cBAK [1] | relative KANK1 binding to talin1-cBAK (%) [2] | localization of mCherry–KANK1 to FAs / FA belt [3] |
| --- | --- | --- | --- |
| KANK1 L41E: mCherry-KANK1 with point mutation L41E (protein, left off: mCherry, C-terminal, kept) MAHTTKVNGSASGKAGDILSGDQDKEQKDPYFVETPYGYQEDLDFLKYVDDIQKGNTIKRLNIQKRRKPSVPCPEPRTTSGQQGIWTSTESLSSSNSDDNKQCPNFLIARSQVTSTPISKPPPPLETSLPFLTIPENRQLPPPSPQLPKHNLHVTKTLMETRRRLEQERATMQMTPGEFRRPRLASFGGMGTTSSLPSFVGSGNHNPAKHQLQNGYQGNGDYGSYAPAAPTTSSMGSSIRHSPLSSGISTPVTNVSPMHLQHIREQMAIALKRLKELEEQVRTIPVLQVKISVLQEEKRQLVSQLKNQRAASQINVCGVRKRSYSAGNASQLEQLSRARRSGGELYIDYEEEEMETVEQSTQRIKEFRQLTADMQALEQKIQDSSCEASSELRENGECRSVAVGAEENMNDIVVYHRGSRSCKDAAVGTLVEMRNCGVSVTEAMLGVMTEADKEIELQQQTIESLKEKIYRLEVQLRETTHDREMTKLKQELQAAGSRKKVDKATMAQPLVFSKVVEAVVQTRDQMVGSHMDLVDTCVGTSVETNSVGISCQPECKNKVVGPELPMNWWIVKERVEMHDRCAGRSVEMCDKSVSVEVSVCETGSNTEESVNDLTLLKTNLNLKEVRSIGCGDCSVDVTVCSPKECASRGVNTEAVSQVEAAVMAVPRTADQDTSTDLEQVHQFTNTETATLIESCTNTCLSTLDKQTSTQTVETRTVAVGEGRVKDINSSTKTRSIGVGTLLSGHSGFDRPSAVKTKESGVGQININDNYLVGLKMRTIACGPPQLTVGLTASRRSVGVGDDPVGESLENPQPQAPLGMMTGLDHYIERIQKLLAEQQTLLAENYSELAEAFGEPHSQMGSLNSQLISTLSSINSVMKSASTEELRNPDFQKTSLGKITGNYLGYTCKCGGLQSGSPLSSQTSQPEQEVGTSEGKPISSLDAFPTQEGTLSPVNLTDDQIAAGLYACTNNESTLKSIMKKKDGNKDSNGAKKNLQFVGINGGYETTSSDDSSSDESSSSESDDECDVIEYPLEEEEEEEDEDTRGMAEGHHAVNIEGLKSARVEDEMQVQECEPEKVEIRERYELSEKMLSACNLLKNTINDPKALTSKDMRFCLNTLQHEWFRVSSQKSAIPAMVGDYIAAFEAISPDVLRYVINLADGNGNTALHYSVSHSNFEIVKLLLDADVCNVDHQNKAGYTPIMLAALAAVEAEKDMRIVEELFGCGDVNAKASQAGQTALMLAVSHGRIDMVKGLLACGADVNIQDDEGSTALMCASEHGHVEIVKLLLAQPGCNGHLEDNDGSTALSIALEAGHKDIAVLLYAHVNFAKAQSPGTPRLGRKTSPGPTHRGSFD | abolishes GFP–talin–cBAK mediated recruitment | not detected | abolished localization to FAs and the FA belt |
| KANK1 L43E: mCherry-KANK1 with point mutation L43E (protein, left off: mCherry, C-terminal, kept) MAHTTKVNGSASGKAGDILSGDQDKEQKDPYFVETPYGYQLDEDFLKYVDDIQKGNTIKRLNIQKRRKPSVPCPEPRTTSGQQGIWTSTESLSSSNSDDNKQCPNFLIARSQVTSTPISKPPPPLETSLPFLTIPENRQLPPPSPQLPKHNLHVTKTLMETRRRLEQERATMQMTPGEFRRPRLASFGGMGTTSSLPSFVGSGNHNPAKHQLQNGYQGNGDYGSYAPAAPTTSSMGSSIRHSPLSSGISTPVTNVSPMHLQHIREQMAIALKRLKELEEQVRTIPVLQVKISVLQEEKRQLVSQLKNQRAASQINVCGVRKRSYSAGNASQLEQLSRARRSGGELYIDYEEEEMETVEQSTQRIKEFRQLTADMQALEQKIQDSSCEASSELRENGECRSVAVGAEENMNDIVVYHRGSRSCKDAAVGTLVEMRNCGVSVTEAMLGVMTEADKEIELQQQTIESLKEKIYRLEVQLRETTHDREMTKLKQELQAAGSRKKVDKATMAQPLVFSKVVEAVVQTRDQMVGSHMDLVDTCVGTSVETNSVGISCQPECKNKVVGPELPMNWWIVKERVEMHDRCAGRSVEMCDKSVSVEVSVCETGSNTEESVNDLTLLKTNLNLKEVRSIGCGDCSVDVTVCSPKECASRGVNTEAVSQVEAAVMAVPRTADQDTSTDLEQVHQFTNTETATLIESCTNTCLSTLDKQTSTQTVETRTVAVGEGRVKDINSSTKTRSIGVGTLLSGHSGFDRPSAVKTKESGVGQININDNYLVGLKMRTIACGPPQLTVGLTASRRSVGVGDDPVGESLENPQPQAPLGMMTGLDHYIERIQKLLAEQQTLLAENYSELAEAFGEPHSQMGSLNSQLISTLSSINSVMKSASTEELRNPDFQKTSLGKITGNYLGYTCKCGGLQSGSPLSSQTSQPEQEVGTSEGKPISSLDAFPTQEGTLSPVNLTDDQIAAGLYACTNNESTLKSIMKKKDGNKDSNGAKKNLQFVGINGGYETTSSDDSSSDESSSSESDDECDVIEYPLEEEEEEEDEDTRGMAEGHHAVNIEGLKSARVEDEMQVQECEPEKVEIRERYELSEKMLSACNLLKNTINDPKALTSKDMRFCLNTLQHEWFRVSSQKSAIPAMVGDYIAAFEAISPDVLRYVINLADGNGNTALHYSVSHSNFEIVKLLLDADVCNVDHQNKAGYTPIMLAALAAVEAEKDMRIVEELFGCGDVNAKASQAGQTALMLAVSHGRIDMVKGLLACGADVNIQDDEGSTALMCASEHGHVEIVKLLLAQPGCNGHLEDNDGSTALSIALEAGHKDIAVLLYAHVNFAKAQSPGTPRLGRKTSPGPTHRGSFD | abolishes GFP–talin–cBAK mediated recruitment | not detected | abolished localization to FAs and the FA belt |
